Reference: publication PMC1762433

Molecular target: FBXW8 (UniProt Q8N3Y1)
Assay: HA IP, V5 immunoblot
Details: reference: HA-cyclin D1 wild type; sites T286

binding against the reference: weaker
Substance: cyclin D1 (from UniProt P24385) HA-cyclin D1 T286A
